Earlier results on three substances are cited in publication PMC8405992.

Read-outs that look alike come from different tables or passages of the source.

Series [1] addresses Ubp6 UBL (Saccharomyces cerevisiae) (UniProt P43593).
Series [2] deals with Dsk2 UBL (Saccharomyces cerevisiae) (UniProt P48510).
The target of series [3] is Ubp6 UBL (Saccharomyces cerevisiae) (UniProt P43593). This is another data set of the same source.
Series [4] has as its target Dsk2 UBL (Saccharomyces cerevisiae) (UniProt P48510). This is another data set of the same source.
Series [5] deals with Rad23 UBL (Saccharomyces cerevisiae) (UniProt P32628).
For series [6], the target named is Rad23-UBL UBL (Saccharomyces cerevisiae) (UniProt P32628).
Rad23-UBL UBL (Saccharomyces cerevisiae), sequence (P32628 1-77): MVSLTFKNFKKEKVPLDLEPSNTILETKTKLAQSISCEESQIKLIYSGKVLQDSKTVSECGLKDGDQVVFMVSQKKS

Ubp6 UBL (Saccharomyces cerevisiae), sequence (P43593 6-80): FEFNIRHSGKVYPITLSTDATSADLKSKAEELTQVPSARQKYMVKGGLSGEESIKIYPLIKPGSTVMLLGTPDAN
Dsk2 UBL (Saccharomyces cerevisiae), sequence (P48510 1-76): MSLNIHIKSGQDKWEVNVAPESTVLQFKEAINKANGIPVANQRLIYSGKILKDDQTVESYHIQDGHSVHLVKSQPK
Rpn1, sequence (P38764 2-993): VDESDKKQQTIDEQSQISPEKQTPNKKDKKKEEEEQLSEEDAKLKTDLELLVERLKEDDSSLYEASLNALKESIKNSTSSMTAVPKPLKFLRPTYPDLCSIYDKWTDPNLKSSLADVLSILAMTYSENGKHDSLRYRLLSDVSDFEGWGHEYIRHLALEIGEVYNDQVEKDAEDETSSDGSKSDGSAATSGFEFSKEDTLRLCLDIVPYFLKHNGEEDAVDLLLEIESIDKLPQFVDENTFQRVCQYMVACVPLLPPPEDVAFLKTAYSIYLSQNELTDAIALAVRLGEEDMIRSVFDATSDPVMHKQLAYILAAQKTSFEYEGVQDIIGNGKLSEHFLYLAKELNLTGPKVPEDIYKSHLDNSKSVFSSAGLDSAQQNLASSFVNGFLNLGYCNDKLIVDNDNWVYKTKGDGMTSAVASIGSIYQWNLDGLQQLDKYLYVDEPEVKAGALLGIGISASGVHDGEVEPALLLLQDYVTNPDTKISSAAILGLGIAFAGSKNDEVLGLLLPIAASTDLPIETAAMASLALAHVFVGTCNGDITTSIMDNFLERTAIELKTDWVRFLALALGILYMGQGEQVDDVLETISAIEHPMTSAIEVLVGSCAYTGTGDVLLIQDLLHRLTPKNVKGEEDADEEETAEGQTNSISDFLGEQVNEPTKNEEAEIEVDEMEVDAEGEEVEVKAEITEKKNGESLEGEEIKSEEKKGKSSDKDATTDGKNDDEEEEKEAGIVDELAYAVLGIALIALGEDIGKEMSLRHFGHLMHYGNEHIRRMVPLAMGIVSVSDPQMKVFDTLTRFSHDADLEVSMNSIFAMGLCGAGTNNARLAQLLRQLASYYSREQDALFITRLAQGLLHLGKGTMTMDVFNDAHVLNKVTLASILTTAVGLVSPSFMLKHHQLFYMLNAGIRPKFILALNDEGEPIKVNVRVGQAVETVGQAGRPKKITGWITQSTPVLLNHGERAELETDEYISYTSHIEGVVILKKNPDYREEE
Rpn1 391-642, sequence (P38764 391-642): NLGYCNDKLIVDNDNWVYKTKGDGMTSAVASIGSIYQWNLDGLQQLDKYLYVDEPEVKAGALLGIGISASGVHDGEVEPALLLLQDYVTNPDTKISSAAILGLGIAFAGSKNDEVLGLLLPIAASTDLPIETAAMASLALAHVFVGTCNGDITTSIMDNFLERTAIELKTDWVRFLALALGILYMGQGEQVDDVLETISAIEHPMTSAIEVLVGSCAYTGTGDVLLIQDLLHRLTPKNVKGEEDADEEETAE
Rad23 UBL (Saccharomyces cerevisiae), sequence (P32628 1-77): as the sequence (P32628 1-77) above

As a reminder, the Kd is a measure of binding affinity in units of concentration. Rpn1 391-642 (from UniProt P38764): the Kd in series [1] was 40 µM; in series [2] it was 22 µM.

In the case of Rpn1 (from UniProt P38764), the results for the Kd in series [3] and in series [4] were 2 µM and 12 µM, respectively.

On to Rpn1 T1 site (from UniProt P38764), for which the Kd in series [5] and in series [6] was 0.064 µM each time.
